Test results taken from patent US20090098127A1 (MEDICAL RESEARCH FUND OF TEL AVIV SOURASKY MEDICAL CENTER, published 2009).

Tests used:
[1] = molecular target: T1, hypoxia-inducible factor 1, alpha subunit isoform 1 (HIF-1α), untagged (human, UniProt Q16665 1-826); test: IP with HIF-1α antibody, Flag immunoblot, HEK 293 cells
T1 construct: Stands for both endogenous HIF-1α (PC-3, CL-1, HEK 293) and the untagged wild-type protein expressed from pcDNA3.1-HIF-1α; also called HIF-1 alpha; pcDNA3.1-HIF-1α product

[2] = molecular target: T1, hypoxia-inducible factor 1, alpha …; test: cell-based or functional assay
HIF-1β = molecular target: T2, HIF-1β (UniProt P27540 2-789, limits assumed); test: co-IP with anti-Flag antibody, HIF-1β immunoblot, HEK 293 cells
T2 construct: Endogenous protein in HEK 293 lysates; also called HIF-1β protein
Excerpt: FIGS. 3a-f are autoradiograms illustrating HIF-1α immunoblotting of FLAG immunoprecipitates (IP) (FIG. 3b) or whole cell extracts (WCE) (FIG. 3a), FLAG immunoblotting of HIF-1α IP (FIG. 3d) or WCE (FIG. 3c), and HIF-1β immunoblotting of FLAG IP (FIG. 3f) or WCE (FIG. 3e). HEK 293 cells were transiently co-transfected with two of the following expression vectors: p3×Flag-cmv-25 (EV), pcdna3.1-HIF-1α (HIF-1α) or p3×Flag-MSF-A (MSF-A), and two days following transfection under normoxic conditions WCE or IP were subjected to immunoblot (IB) analysis. Lane 1-EV and HIF-1α; lane 2-MSF-A and HIF-1α.
To confirm the interaction between the HIF-1α and the MSF-A proteins, HEK 293 cells were transiently co-transfected with the p3×Flag-MSF-A and the pcDNA3.1-HIF-1α vectors, and were grown for 24 hours under normoxic conditions (i.e., conditions of 20% oxygen), following which whole cell extracts (WCE) were subjected to co-immunoprecipitation (IP) using anti-FLAG or anti-HIF-1α antibodies. Following IP, the proteins were subjected to SDS-PAGE and immunoblotting (IB) using the counterpart antibody. As is shown in FIGS. 3a-d, following transfection with both expression vectors (i.e., pcDNA3.1-HIF-1α and p3×Flag-MSF-A) immunoprecipitates generated using either the anti-HIF-1α antibody or the anti-Flag antibody included the reciprocal proteins, i.e., the Flag-MSF-A or HIF-1α proteins, respectively.

p300 co-activator = molecular target: T3, p300 co-activator (UniProt Q09472 2-2414); test: co-IP with anti-Flag antibody, p300 immunoblot; association within the HIF-1α complex, may be indirect
T3 construct: Endogenous protein, detected with anti-p300 antibody (Santa Cruz); also called p300 protein
Method: The p300 co-activator is associated with HIF-1α and MSF-A proteins—To test the hypothesis that proteins, which are known to interact with the HIF-1α protein, such as the co-activator p300, are associated with MSF-A and HIF-1α, cells were co-transfected with the pcDNA3.1-HIF-1α and the p3×Flag-MSF-A expression vectors and IP experiments were performed using either anti-FLAG or anti-HIF-1α antibodies. As shown in FIGS. 5a-c, while the anti-HIF-1α antibody was capable of precipitating the p300 protein in both cells co-transfected with the pcDNA3.1-HIF-1α and the p3×Flag-cmv-25 expression vector alone and cells co-transfected with the pcDNA3.1-HIF-1α and the p3×Flag-MSF-A vectors, the anti-Flag antibody was capable of precipitating the p300 protein only in cells that were co-transfected with the pcDNA3.1-HIF-1α and the p3×Flag-MSF-A vectors.

T1 sequence (Q16665 whole entry, canonical isoform): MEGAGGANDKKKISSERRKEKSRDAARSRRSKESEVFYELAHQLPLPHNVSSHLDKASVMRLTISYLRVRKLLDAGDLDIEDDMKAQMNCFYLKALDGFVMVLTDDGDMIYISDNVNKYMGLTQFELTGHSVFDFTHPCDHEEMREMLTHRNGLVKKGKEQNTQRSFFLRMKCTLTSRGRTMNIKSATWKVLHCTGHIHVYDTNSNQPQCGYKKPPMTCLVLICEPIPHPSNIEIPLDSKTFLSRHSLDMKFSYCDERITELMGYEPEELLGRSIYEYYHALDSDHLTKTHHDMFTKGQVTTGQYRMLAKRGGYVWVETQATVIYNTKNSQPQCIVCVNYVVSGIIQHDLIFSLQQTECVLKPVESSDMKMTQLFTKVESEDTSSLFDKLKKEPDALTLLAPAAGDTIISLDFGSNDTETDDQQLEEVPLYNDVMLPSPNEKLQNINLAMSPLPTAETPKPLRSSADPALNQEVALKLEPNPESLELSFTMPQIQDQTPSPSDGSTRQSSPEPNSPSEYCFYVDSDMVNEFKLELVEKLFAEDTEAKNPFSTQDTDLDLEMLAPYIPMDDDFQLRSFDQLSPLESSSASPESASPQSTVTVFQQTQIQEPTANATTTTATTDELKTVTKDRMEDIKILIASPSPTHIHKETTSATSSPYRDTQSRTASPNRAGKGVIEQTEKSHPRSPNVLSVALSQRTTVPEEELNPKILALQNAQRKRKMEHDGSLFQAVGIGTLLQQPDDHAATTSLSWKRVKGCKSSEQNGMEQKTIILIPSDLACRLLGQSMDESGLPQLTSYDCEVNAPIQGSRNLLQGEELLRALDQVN
T3 sequence (Q09472 2-2414 limits assumed): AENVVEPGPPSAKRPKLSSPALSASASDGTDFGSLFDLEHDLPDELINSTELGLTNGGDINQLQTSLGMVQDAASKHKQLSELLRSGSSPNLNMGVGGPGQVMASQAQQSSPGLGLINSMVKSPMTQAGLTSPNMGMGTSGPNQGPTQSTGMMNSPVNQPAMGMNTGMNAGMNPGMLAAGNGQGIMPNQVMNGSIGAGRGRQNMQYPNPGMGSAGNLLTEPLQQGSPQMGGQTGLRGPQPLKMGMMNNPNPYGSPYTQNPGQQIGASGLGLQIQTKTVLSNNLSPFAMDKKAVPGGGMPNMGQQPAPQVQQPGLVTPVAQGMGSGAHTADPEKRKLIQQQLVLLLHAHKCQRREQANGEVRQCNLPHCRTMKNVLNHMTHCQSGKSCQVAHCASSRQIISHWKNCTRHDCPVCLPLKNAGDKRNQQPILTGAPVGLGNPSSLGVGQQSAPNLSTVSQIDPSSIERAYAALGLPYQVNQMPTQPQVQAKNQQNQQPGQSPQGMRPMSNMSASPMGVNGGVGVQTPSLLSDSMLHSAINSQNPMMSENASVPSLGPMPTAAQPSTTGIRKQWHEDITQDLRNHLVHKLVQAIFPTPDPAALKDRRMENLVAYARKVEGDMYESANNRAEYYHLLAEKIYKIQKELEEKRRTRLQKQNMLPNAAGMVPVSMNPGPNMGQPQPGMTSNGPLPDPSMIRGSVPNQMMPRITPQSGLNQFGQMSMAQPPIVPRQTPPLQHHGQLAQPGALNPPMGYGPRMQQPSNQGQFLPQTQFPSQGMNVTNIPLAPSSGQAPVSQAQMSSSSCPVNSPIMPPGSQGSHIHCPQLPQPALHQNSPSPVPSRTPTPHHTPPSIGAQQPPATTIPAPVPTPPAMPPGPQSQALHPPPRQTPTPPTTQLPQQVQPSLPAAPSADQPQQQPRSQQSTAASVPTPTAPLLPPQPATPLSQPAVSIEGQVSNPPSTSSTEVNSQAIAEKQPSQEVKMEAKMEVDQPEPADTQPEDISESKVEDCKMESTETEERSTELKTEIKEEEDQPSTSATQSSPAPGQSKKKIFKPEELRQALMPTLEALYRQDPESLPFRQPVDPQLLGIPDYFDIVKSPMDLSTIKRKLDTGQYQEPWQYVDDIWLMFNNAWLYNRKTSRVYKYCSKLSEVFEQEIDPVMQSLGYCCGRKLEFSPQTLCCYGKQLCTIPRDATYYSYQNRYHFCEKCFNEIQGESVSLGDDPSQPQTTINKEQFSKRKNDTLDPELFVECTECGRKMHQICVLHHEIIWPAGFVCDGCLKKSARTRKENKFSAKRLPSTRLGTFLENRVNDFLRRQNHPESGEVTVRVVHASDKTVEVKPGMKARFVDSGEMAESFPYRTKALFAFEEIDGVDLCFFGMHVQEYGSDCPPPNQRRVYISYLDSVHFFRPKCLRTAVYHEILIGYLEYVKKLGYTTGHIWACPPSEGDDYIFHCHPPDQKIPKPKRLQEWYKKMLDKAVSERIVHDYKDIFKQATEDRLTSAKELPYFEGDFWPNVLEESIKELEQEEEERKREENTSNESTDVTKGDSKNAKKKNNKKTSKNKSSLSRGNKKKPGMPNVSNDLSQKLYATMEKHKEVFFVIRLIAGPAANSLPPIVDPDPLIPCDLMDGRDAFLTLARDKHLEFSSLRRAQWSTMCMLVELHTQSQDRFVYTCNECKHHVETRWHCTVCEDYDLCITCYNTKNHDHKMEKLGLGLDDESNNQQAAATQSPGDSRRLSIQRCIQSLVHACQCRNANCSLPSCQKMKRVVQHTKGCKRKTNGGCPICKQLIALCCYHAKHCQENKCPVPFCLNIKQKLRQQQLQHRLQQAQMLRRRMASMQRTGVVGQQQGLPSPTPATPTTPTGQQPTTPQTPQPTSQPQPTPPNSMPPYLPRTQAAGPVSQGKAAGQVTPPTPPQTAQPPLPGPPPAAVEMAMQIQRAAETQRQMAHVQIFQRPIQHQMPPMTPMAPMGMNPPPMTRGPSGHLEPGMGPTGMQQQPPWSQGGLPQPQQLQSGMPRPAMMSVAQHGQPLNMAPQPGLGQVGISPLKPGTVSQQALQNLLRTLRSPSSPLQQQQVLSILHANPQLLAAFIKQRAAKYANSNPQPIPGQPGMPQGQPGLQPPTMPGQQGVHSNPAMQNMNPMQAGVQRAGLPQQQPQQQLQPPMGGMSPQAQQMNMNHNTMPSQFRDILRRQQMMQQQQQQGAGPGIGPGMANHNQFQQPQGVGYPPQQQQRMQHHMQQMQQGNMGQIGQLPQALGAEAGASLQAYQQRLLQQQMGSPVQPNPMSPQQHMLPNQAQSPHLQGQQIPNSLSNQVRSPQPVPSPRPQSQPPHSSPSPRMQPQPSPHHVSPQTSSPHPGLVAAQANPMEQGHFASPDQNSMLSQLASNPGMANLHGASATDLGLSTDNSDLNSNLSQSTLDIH
T2 sequence (P27540 2-789 limits assumed): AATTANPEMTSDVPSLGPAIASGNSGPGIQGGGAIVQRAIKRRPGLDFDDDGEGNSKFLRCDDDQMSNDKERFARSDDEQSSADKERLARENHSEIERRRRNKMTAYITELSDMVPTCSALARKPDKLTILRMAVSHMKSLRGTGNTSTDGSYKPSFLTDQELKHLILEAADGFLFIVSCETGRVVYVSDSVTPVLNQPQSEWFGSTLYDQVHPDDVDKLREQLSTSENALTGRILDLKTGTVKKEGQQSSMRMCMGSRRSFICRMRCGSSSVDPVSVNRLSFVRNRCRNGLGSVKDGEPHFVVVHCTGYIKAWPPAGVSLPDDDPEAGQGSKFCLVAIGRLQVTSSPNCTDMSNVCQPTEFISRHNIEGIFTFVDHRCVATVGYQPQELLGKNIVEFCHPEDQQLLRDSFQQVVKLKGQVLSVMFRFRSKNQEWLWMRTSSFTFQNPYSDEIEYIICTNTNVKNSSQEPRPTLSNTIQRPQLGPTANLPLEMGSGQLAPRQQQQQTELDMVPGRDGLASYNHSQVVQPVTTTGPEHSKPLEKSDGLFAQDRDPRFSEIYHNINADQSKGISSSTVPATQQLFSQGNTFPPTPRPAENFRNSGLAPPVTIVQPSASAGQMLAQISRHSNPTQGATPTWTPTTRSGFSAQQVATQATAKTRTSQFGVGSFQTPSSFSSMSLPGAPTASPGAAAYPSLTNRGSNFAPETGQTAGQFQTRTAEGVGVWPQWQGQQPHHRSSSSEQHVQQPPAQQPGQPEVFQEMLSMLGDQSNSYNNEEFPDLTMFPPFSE

binding result [1] | degradation half-life of HIF-1α (cycloheximide, PC-3-MSF-A cells against PC-3-Neo cells) [2] | half-life of HIF-1α protein (pulse-chase, PC-3-MSF-A cells against PC-3-Neo cells) [2] | luciferase activity (HRE reporter), hypoxia as compared to normoxia, PC-3 cells [2] | binding result (HIF-1β) | binding result (p300 co-activator) | Binder
binds | – | – | – | – | – | Flag-ΔG-MSF-A (p3×Flag-ΔG-MSF-A product) (other, also called AG-MSF-A; not shown: N-terminal Flag tag from vector p3×Flag-myc-CMV-25) MKKSYSGGTRTSSGRLRRLGDSSGPALKRSFEVEEVETPNSTPPRRVQTPLLRATVASSTQKFQDLGVKNSEPSARHVDSLSQRSPKASLRRVELSGPKAAEPVSRRTELSIDISSKQVENAGAIGPSRFGLKRAEVLGHKTPEPAPRRTEITIVKPQESAHRRMEPPASKVPEVPTAPATDAAPKRVEIQMPKPAEAPTAPSPAQTLENSEPAPVSQLQSRLEPKPQPPVAEATPRSQEATEAAPSCVGDMADTPRDAGLKQAPASRNEKAPVDFGYVGIDSILEQMRRKAMKQGFEFNIMVVTLINTLFKSKISRKSVQPTSEERIPKTIEIKSITHDIEEKGVRMKLTVIDTPGFGDHINNENCWQPIMKFINDQYEKYLQEEVNINRKKRIPDTRVHCCLYFIPATGHSLRPLDIEFMKRLSKVVNIVPVIAKADTLTLEERVHFKQRITADLLSNGIDVYPQKEFDEDSEDRLVNEKFREMIPFAVVGSDHEYQVNGKRILGRKTKWGTIEVENTTHCEFAYLRDLLIRTHMQNIKDITSSIHFEAYRVKRLNEGSSAMANGVEEKEPEAPEM
– | 40 min | ~45 min | 50 fold | no binding | binds | Flag-MSF-A (p3×Flag-MSF-A product, wild type) (other, not shown: small tags and cut ends, FLAG at the amino terminal of the recombinant protein; Expressed in HEK 293 or PC-3 cells and assayed in lysates; also called Flag-tagged MSF-A; recombinant MSF-A) MKKSYSGGTRTSSGRLRRLGDSSGPALKRSFEVEEVETPNSTPPRRVQTPLLRATVASSTQKFQDLGVKNSEPSARHVDSLSQRSPKASLRRVELSGPKAAEPVSRRTELSIDISSKQVENAGAIGPSRFGLKRAEVLGHKTPEPAPRRTEITIVKPQESAHRRMEPPASKVPEVPTAPATDAAPKRVEIQMPKPAEAPTAPSPAQTLENSEPAPVSQLQSRLEPKPQPPVAEATPRSQEATEAAPSCVGDMADTPRDAGLKQAPASRNEKAPVDFGYVGIDSILEQMRRKAMKQGFEFNIMVVGQSGLGKSTLINTLFKSKISRKSVQPTSEERIPKTIEIKSITHDIEEKGVRMKLTVIDTPGFGDHINNENCWQPIMKFINDQYEKYLQEEVNINRKKRIPDTRVHCCLYFIPATGHSLRPLDIEFMKRLSKVVNIVPVIAKADTLTLEERVHFKQRITADLLSNGIDVYPQKEFDEDSEDRLVNEKFREMIPFAVVGSDHEYQVNGKRILGRKTKWGTIEVENTTHCEFAYLRDLLIRTHMQNIKDITSSIHFEAYRVKRLNEGSSAMANGVEEKEPEAPEM
binds | – | – | – | – | – | Flag-ΔN-MSF-A (p3×Flag-ΔN-MSF-A product) (other, Deletion of the first 25 amino acids of MSF-A; also called N-terminal truncated form of MSF-A; not shown: N-terminal Flag tag from vector p3×FLAG-myc-CMV-25) ALKRSFEVEEVETPNSTPPRRVQTPLLRATVASSTQKFQDLGVKNSEPSARHVDSLSQRSPKASLRRVELSGPKAAEPVSRRTELSIDISSKQVENAGAIGPSRFGLKRAEVLGHKTPEPAPRRTEITIVKPQESAHRRMEPPASKVPEVPTAPATDAAPKRVEIQMPKPAEAPTAPSPAQTLENSEPAPVSQLQSRLEPKPQPPVAEATPRSQEATEAAPSCVGDMADTPRDAGLKQAPASRNEKAPVDFGYVGIDSILEQMRRKAMKQGFEFNIMVVGQSGLGKSTLINTLFKSKISRKSVQPTSEERIPKTIEIKSITHDIEEKGVRMKLTVIDTPGFGDHINNENCWQPIMKFINDQYEKYLQEEVNINRKKRIPDTRVHCCLYFIPATGHSLRPLDIEFMKRLSKVVNIVPVIAKADTLTLEERVHFKQRITADLLSNGIDVYPQKEFDEDSEDRLVNEKFREMIPFAVVGSDHEYQVNGKRILGRKTKWGTIEVENTTHCEFAYLRDLLIRTHMQNIKDITSSIHFEAYRVKRLNEGSSAMANGVEEKEPEAPEM
